Laboratory results taken from patent publication US7374920B2, “Ginkgo biloba levopimaradiene synthase” (priority 2001, dated 2008).
“Also recorded” adds a separate entry of the source.

Key:
[1] = in vitro assay of levopimaradiene synthase constructs expressed in wild-type S. cerevisiae JBY575; format: biochemical, Saccharomyces cerevisiae; settings: wild-type S. cerevisiae JBY575, galactose 48 hours, lysate with GGDP
Protocol: Expression in S. cerevisiae JBY575, which represents wild-type yeast, was observed. JBY575 cells transformed with pRS426GAL inserted with the putative levopimaradiene synthase were grown in synthetic complete medium lacking uracil and supplemented with 2% glucose and 1.5% agar at 30° C. to saturation and induced with galactose for 48 hours. Cells were harvested, resuspended in lysis buffer, and mixed by vortexing over glass beads. The lysate was assayed with 60 μM GGDP in the presence and absence of 0.2% and 5% Triton X-100.
All in vitro reactions were extracted 3× with hexane and dried over MgSO4. The reaction was further extracted twice with diethyl ether and dried over MgSO4. Thereafter, the crude lysate was suspended in 100 mM Tris, pH 8.0 containing 2.9 units/mg apyrase (a dephosphorylating agent) and 10 units/μL calf intestinal alkaline phosphatase, incubated at 30° C. for 3 hours, and extracted with diethyl ether as noted above (Croteau and Cane, 1985). The crude reaction mixtures were eluted over SiO2, concentrated, and analyzed by GC and GC/MS.
Gas chromatography spectra were obtained on a Hewlett Packard 6890 Series GC System equipped with an Rtx-5 capillary column (Restek, 30 m×0.25 mm i.d., 0.10 μm df). The following separation conditions and temperature program were employed: injector port 250° C., FID 250° C., split ratio 39:1, helium flow 20 cm/s (0.6 mL/min), 150° C. hold 5 min, increase to 250° C. (5° C./min), hold 5 min. GC/MS spectra were obtained on a Hewlett-Packard 5890A instrument with a 30-m DB-5 ms column (J&W Scientific Inc., 0.25 mm i.d., 0.10 μm df). The following separation conditions and temperature program were employed: injector port 280° C., transfer lines: 280° C., helium flow at 30 cm/s (1 mL/min) with splitless injection at 150° C. hold 3 min, increase to 250° C. (5° C./min), hold 5 min. Mass spectra (m/z 50 to 500) were obtained on a VG ZAB-HF reverse-geometry double-focusing instrument at 70 eV with an electron-impact ion source (200° C.). Accelerating voltage was set to 8 kV and the resolution was 1000 (10% valley).
The skilled artisan recognizes that lysis and assay conditions should be optimized. Examples of parameters that can be adjusted to optimize conditions include altering buffer, pH, reductant, reductant concentration, metal cofactors, cofactor concentrations, glycerol concentrations, substrate concentrations, and assay temperatures. […] Maximum soluble protein production and diterpene yield were obtained with the following conditions. Cell cultures were induced with 1 mM IPTG at 20° C. with shaking for 6 hours and lysed by sonication in 30 mM HEPES, pH 7.2, 5 mM DTT, and 5% glycerol. The soluble fraction of the lysate (100 mg/1 mL) was incubated with 20 μM GGDP in 30 mM HEPES, pH 7.2, 5 mM DTT, 5% glycerol, 2 mM MgCl2, and 500 μM MnCl2 overnight at 32° C. Yeast expression was induced with galactose at 30° C. for 48 hours and the cells were lysed and assayed according to the conditions noted.

EHY18 yeast cells = assay: in vivo expression of GbLS constructs in yeast strain EHY18 that accumulates GGDP, GC quantitation of products; format: cell-based; settings: for diterpene products on expression in EHY18: GC, GC/MS
Protocol: The yeast strain of the copending application employed was EHY18 (Hart, E., 2001) which was further transformed with multiple-copy yeast expression vectors comprising an isolated and purified nucleic acid sequence of GbLS or derivatives thereof, which are described herein under control of the GAL1 inducible promoter. Yeast cells were grown to saturation in 5 mL ScD-Leu-Ura at 30° C. Cells were harvested (1300×g, 2 min, 25° C.) and resuspended in 500 μL sterile Milli-Q H2O (2×). The washed cells were resuspended in 5 mL sterile Milli-Q H2O. An aliquot of the culture (5 μL) was added to a 25 mL Corex tube containing pre-prepared 2× resin and 5 mL ScG-Leu-Ura (4% galactose) and shaken at 30° C. for 6 days. Resin was collected by filtration through a Kontes chromatography column (1.7 cm diameter) and rinsed with dI H2O until eluent was clear. The resin was incubated in 2 mL ethanol for several minutes, eluted, and repeated 2×. The combined eluents were dissolved in approximately 3 mL dI H2O and extracted (3×) with 3 mL hexane. The combined extracts were concentrated under a stream of nitrogen. GC analysis (quantitation extrapolated from 0.2 mg/mL longifolene external standard) indicated the following product profile (obtained from triplicate measurement of three cultures): 0.61±0.20 mg/L levopimaradiene, 0.04±0.01 mg/L abietadiene, 0.15±0.05 mg/L abietatriene, 0.16±0.13 mg/L (+)-copalol, and 1.79±0.90 mg/L geranylgeraniol. GC/MS fragmentation confirmed the identity of each compound.
A large scale culture (1-L) was prepared by growing the yeast cells to saturation in 5 mL ScD-Leu-Ura at 30° C. Cells were harvested (1300×g, 2 min, 25° C.) and resuspended in 500 μL sterile Milli-Q H2O (2×). The washed cells were resuspended in 5 mL sterile Milli-Q H2O. An aliquot of the culture (1 mL) was added to a 2 L flask containing 1-L ScG-Leu-Ura (4% galactose) and 88.27 g resin in 120 mL Milli-Q H2O (pre-prepared). The resin was eluted with ethanol (3×100 mL with 20 min incubation periods), which was subsequently extracted (6×) with hexane. The combined extracts were dried over magnesium sulfate, filtered, and concentrated under reduced pressure. GC analysis (quantitation extrapolated from 0.2 mg/mL longifolene external standard) indicated the following product profile (obtained from triplicate measurement): 0.29±0.04 mg/L levopimaradiene, 0.04±0.02 mg/L abietadiene, 0.13±0.04 mg/L abietatriene, 0.11±0.02 mg/L (+)-copalol, and 0.56±0.03 mg/L geranylgeraniol. GC/MS analyses confirmed the production of the above noted diterpenes, which included hydrocarbons and an alcohol.
Further optimization studies employed the Ser61 construct. Factors influencing diterpene production included induction period and concentration of galactose and resin in the inducing medium.

[2] = EHY18, 6 days, 4% galactose, 0.70 g resin/5 mL culture medium, GC quantitation

B1: Ala^2 (protein, listed as Ginkgo biloba)
chain: MAGVLFANLPCSLQLSPKVPFRQSTNILIPFHKRSSFGFNAQHCVRSHLRLRWNCVGIHASAAETRPDQLPQEERFVSRLNADYHPAVWKDDFIDSLTSPNSHATSKSSVDETINKRIQTLVKEIQCMFQSMGDGETNPSAYDTAWVARIPSIDGSGAPQFPQTLQWILNNQLPDGSWGEECIFLAYDRVLNTLACLLTLKIWNKGDIQVQKGVEFVRKHMEEMKDEADNHRPSGFEVVFPAMLDEAKSLGLDLPYHLPFISQIHQKRQKKLQKIPLNVLHNHQTALLYSLEGLQDVVDWQEITNLQSRDGSFLSSPASTACVFMHTQNKRCLHFLNFVLSKFGDYVPCHYPLDLFERLWAVDTVERLGIDRYFKKEIKESLDYVYRYWDAERGVGWARCNPIPDVDDTAMGLRILRLHGYNVSSDVLENFRDEKGDFFCFAGQTQIGVTDNLNLYRCSQVCFPGEKIMEEAKTFTTNHLQNALAKNNAFDKWAVKKDLPGEVEYAIKYPWHRSMPRLEARSYIEQFGSNDVWLGKTVYKMLYVSNEKYLELAKLDFNMVQALHQKETQHIVSWWRESGFNDLTFTRQRPVEMYFSVAVSMFEPEFAACRIAYAKTSCLAVILDDLYDTHGSLDDLKLFSEAVRRWDISVLDSVRDNQLKVCFLGLYNTVNGFGKDGLKEQGRDVLGYLRKVWEGLLASYTKEAEWSAAKYVPTFNEYVENAKVSIALATVVLNSIFFTGELLPDYILQQVDLRSKFLHLVSLTGRLINDTKTYQAERNRGELVSSVQCYMRENPECTEEEALSHVYGIIDNALKELNWELANPASNAPLCVRRLLFNTARVMQLFYMYRDGFGISDKEMKDHVSRTLFDPVA
[1]
  diterpene product on yeast expression: failed to produce observable levels of any diterpene product
[1]; listed as full-length
  diterpene product on yeast expression: failed to produce detectable levels of biosynthetic product
EHY18 yeast cells
  diterpene products on expression in EHY18: produced (+)-copalol, levopimaradiene, abietadiene, and abietatriene

B2: Ser^61: Ginkgo biloba levopimaradiene synthase truncated at Ala^60-Ser^61; amino acid sequence SEQ.ID.NO:35 (protein, listed as Ginkgo biloba)
chain: MSAAETRPDQLPQEERFVSRLNADYHPAVWKDDFIDSLTSPNSHATSKSSVDETINKRIQTLVKEIQCMFQSMGDGETNPSAYDTAWVARIPSIDGSGAPQFPQTLQWILNNQLPDGSWGEECIFLAYDRVLNTLACLLTLKIWNKGDIQVQKGVEFVRKHMEEMKDEADNHRPSGFEVVFPAMLDEAKSLGLDLPYHLPFISQIHQKRQKKLQKIPLNVLHNHQTALLYSLEGLQDVVDWQEITNLQSRDGSFLSSPASTACVFMHTQNKRCLHFLNFVLSKFGDYVPCHYPLDLFERLWAVDTVERLGIDRYFKKEIKESLDYVYRYWDAERGVGWARCNPIPDVDDTAMGLRILRLHGYNVSSDVLENFRDEKGDFFCFAGQTQIGVTDNLNLYRCSQVCFPGEKIMEEAKTFTTNHLQNALAKNNAFDKWAVKKDLPGEVEYAIKYPWHRSMPRLEARSYIEQFGSNDVWLGKTVYKMLYVSNEKYLELAKLDFNMVQALHQKETQHIVSWWRESGFNDLTFTRQRPVEMYFSVAVSMFEPEFAACRIAYAKTSCLAVILDDLYDTHGSLDDLKLFSEAVRRWDISVLDSVRDNQLKVCFLGLYNTVNGFGKDGLKEQGRDVLGYLRKVWEGLLASYTKEAEWSAAKYVPTFNEYVENAKVSIALATVVLNSIFFTGELLPDYILQQVDLRSKFLHLVSLTGRLINDTKTYQAERNRGELVSSVQCYMRENPECTEEEALSHVYGIIDNALKELNWELANPASNAPLCVRRLLFNTARVMQLFYMYRDGFGISDKEMKDHVSRTLFDPVA
[1]
  diterpene product on yeast expression: yielded levopimaradiene as the sole diterpene; also recorded: yielded levopimaradiene synthase activity
EHY18 yeast cells; EHY18
  diterpene production relative to wild-type synthase: approximately four
EHY18 yeast cells; [2]
  net yield of (+)-copalol: ~0.2 mg/L
  net yield of diterpene hydrocarbons: ~0.8 mg/L
EHY18 yeast cells
  diterpene products on expression in EHY18: produced (+)-copalol, levopimaradiene, abietadiene, and abietatriene
